Source: publication PMC9898751 (The Journal of Biological Chemistry, 2022)
No end group written: not given here.

Biological target: T1, PHF2(1–70), PHD domain of human PHF2 (residues 1–70) (human, UniProt O75151 1-70)
T1 sequence: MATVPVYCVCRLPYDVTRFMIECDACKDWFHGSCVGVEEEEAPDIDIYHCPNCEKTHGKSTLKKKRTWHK
Experiment: ITC

Binder: ARTK(me3)QTARKSTG [H3(1-12)K4me3 peptide (12-mer of the N-terminal tail of histone H3, trimethylated at lysine 4)]
- Kd: 640 nM
